Data published in US7144731B2, “SCF antibody compositions and methods of using the same” (Amgen Inc., priority 1989, dated 2006).

Key:
human bone marrow = test: Human bone marrow colony assay; assay type: cell-based; conditions: COS-1 CM, 20 U/ml EPO, 14 days, colonies ≥0.2 mm
Experimental: The cDNA of human SCF corresponding to amino acids 1–162 obtained by PCR reactions outlined in Example 3D, was expressed in COS-1 cells as described for the rat SCF in Example 4. COS-1 supernatants were assayed on human bone marrow as well as in the murine HPP-CFC and MC/9 assays. […] The culture conditions of the assay were as follows: human bone marrow from healthy volunteers was centrifuged over Ficoll-Hypaque gradients (Pharmacia) and cultured in 2.1% methyl cellulose, 30% fetal calf serum, 6×10^−5 M 2-mercaptoethanol, 2 mM glutamine, ISCOVE'S medium (GIBCO), 20 U/ml EPO, and 1×10^5 cells/ml for 14 days in a humidified atmosphere containing 7% O2, 10% CO2, and 83% N2. Only those colonies of 0.2 mm in size or larger are indicated.
Recombinant human SCF was tested in agar colony assays on human bone marrow in combination with other growth factors as described above.

[1] = test system: 5-FU treated mouse bone marrow cells; test: HPP-CFC assay; assay type: cell-based; conditions: COS-1 supernatant
Description: There are a variety of biological activities which can be attributed to the natural mammalian rat SCF as well as the recombinant rat SCF protein. One such activity is its effect on early hematopoietic cells. This activity can be measured in a High Proliferative Potential Colony Forming Cell (HPP-CFC) assay [Zsebo, et al., supra (1988)]. To investigate the effects of factors on early hematopoietic cells, the HPP-CFC assay system utilizes mouse bone marrow derived from animals 2 days after 5-fluorouracil (5-FU) treatment. […] The rat SCF is plated in the presence of CSF-1 or IL-6 in semi-solid agar cultures. The agar cultures contain McCoys complete medium (GIBCO), 20% fetal bovine serum, 0.3% agar, and 2×10^5 bone marrow cells/ml. The McCoys complete medium contains the following components: 1× McCoys medium supplemented with 0.1 mM pyruvate, 0.24× essential amino acids, 0.24× non-essential amino acids, 0.027% sodium bicarbonate, 0.24× vitamins, 0.72 mM glutamine, 25 μg/ml L-serine, and 12 μg/ml L-asparagine. The bone marrow cells are obtained from Balb/c mice injected i.v. with 150 mg/kg 5-FU. The femurs are harvested 2 days post 5-FU treatment of the mice and bone marrow is flushed out. The red blood cells are lysed with red blood cell lysing reagent (Becton Dickenson) prior to plating. Test substances are plated with the above mixture in 30 mm dishes. Fourteen days later the colonies (>1 mm in diameter) which contain thousands of cells are scored. This assay was used throughout the purification of natural mammalian cell-derived rat SCF.

W/W^v mice = test: Bone marrow transplantation model in W/W^v mice; assay type: in vivo, mouse
Experimental: A. Rat SCF in Bone Marrow Transplanation COS-1 cells were transfected with V19.8 SCF^1-162 in a large scale experiment (T175 cm^2 flasks instead of 60 mm dishes) as described in Example 4. Approximately 270 ml of supernatant was harvested. This supernatant was chromatographed on wheat germ agglutinin-agarose and S-Sepharose essentially as described in Example 1. The recombinant SCF was evaluated in a bone marrow transplantation model based on murine W/W^v genetics. The W/W^v mouse has a stem cell defect which among other features results in a macrocytic anemia (large red cells) and allows for the transplantation of bone marrow from normal animals without the need for irradiation of the recipient animals [Russel, et al., Science, 144, 844–846 (1964)). […]
In the following example, each group contained six age matched mice. […] The blood profile of the recipient animals is followed at different times post transplantation and engraftment of the donor marrow is determined by the shift of the peripheral blood cells from recipient to donor phenotype. The conversion from recipient to donor phenotype is detected by monitoring the forward scatter profile (FASCAN, Becton Dickenson) of the red blood cells. […] An independent qualitative indicator of engraftment is the hemoglobin type detected by hemoglobin electrophoresis of the recipient blood [Wong, et al., Mol. and Cell. […]

normal human bone marrow = test: Human CFU-GM assay; assay type: cell-based
[2] = test system: murine mast cell line, MC/9; test: MC/9 ^3H-thymidine uptake assay; assay type: cell-based
Experimental: Another useful biological activity of both naturally-derived and recombinant rat SCF is the ability to cause the proliferation of the […] murine mast cell line, MC/9 (ATCC CRL 8306). MC/9 cells are cultured with a source of […] according to the ATCC CRL 8306 protocol. The medium used in the bioassay is RPMI 1640, 4% fetal bovine serum, 5×10^−5M 2-mercaptoethanol, and 1× glutamine-pen-strep. The MC/9 cells proliferate in response to SCF without the requirement for other growth factors. This proliferation is measured by first culturing the cells for 24 h without growth factors, plating 5000 cells in each well of 96 well plates with test sample for 48 h, pulsing for 4 h with 0.5 uCi ^3H-thymidine (specific activity 20 Ci/mmol), harvesting the solution onto glass fiber filters, and then measuring specifically-bound radioactivity. This assay was used in the purification of mammalian cell derived rat SCF after the ACA 54 gel filtration step, section C2 of this Example. Typically, SCF caused a 4–10 fold increase in CPM over background.

KG-1 = KG-1 soft agar cloning assay; assay type: cell-based, human; conditions: COS-1 supernatant, 25 μl assayed; triplicate
Experimental: Another activity of recombinant human SCF is the ability to cause proliferation in soft agar of the human acute myelogenous leukemia (AML) cell line, KG-1 (ATCC CCL 246). COS-1 supernatants from transfected cells were tested in a KG-1 agar cloning assay [Koeffler et al., Science, 200, 1153–1154 (1978)] essentially as described except cells were plated at 3000/ml.

irradiated dogs = test: Canine DLA-identical littermate marrow transplantation; assay type: in vivo, dog; conditions: 920 cGy TBI + marrow
Description: SCF alone enhances hematopoietic recovery following bone marrow transplantation. A variety of experimental variables have been tested in a canine model of bone marrow transplantation, Schuening et al., 76 636–640. In one set of experiments for the present invention, dogs received either G-CSF or SCF after 920 cGy of total body irradiation and 4×10^8 mononuclear marrow cells per kilogram from a DLA-identical littermate. The hematologic recovery, as measured by day of neutrophil recovery to 500 or 1000/mm^3, is accelerated when either SCF or G-CSF is administered compared to control animals that received no growth factor (Table 21). Recovery was 2–6 days earlier in animals that received SCF than it was in those that received no growth factor. As noted above, combinations of appropriate growth factors with SCF will accelerate and enhance the response to those growth factors following hematopoietic transplantation.

B1: V19.8 rat SCF^1-162: recombinant rat SCF truncated at amino acid 162, supernatant of COS-1 or CHO cells transfected with V19.8 (protein)
chain: MKKTQTWIITCIYLQLLLFNPLVKTQEICRNPVTDNVKDITKLVANLPNDYMITLNYVAGMDVLPSHCWLRDMVTHLSVSLTTLLDKFSNISEGLSNYSIIDKLGKIVDDLVACMEENAPKNVKESLKKPETRNFTPEEFFSIFNRSIDAFKDFMVASDTSD
Colony #/100,000 cells ± SD (human bone marrow; 50 μl assayed): 10
Colony #/100,000 cells ± SD (human bone marrow; 100 μl assayed): 13 ± 1
Colony #/200,000 cells ([1]; 3 μl CM assayed): 8
Colony #/200,000 cells ([1]; 6 μl CM assayed): 30
Colony #/200,000 cells ([1]; 12 μl CM assayed): >50
Colony #/200,000 cells ([1]; 25 μl CM assayed): >50
Colony #/200,000 cells ([1]; 50 μl CM assayed): >50
Colony #/200,000 cells ([1]; 100 μl CM assayed): >50
time to conversion to donor phenotype (W/W^v mice; SCF pre-treated group (600 U/ml, 37° C., 20 min)): ≤ 29 days post-transplantation
engraftment of donor marrow vs untreated control (W/W^v mice; cells pre-treated with 600 U/ml or recipients ~400 U/day sub-Q for 3 days): engrafted faster
synergistic activity in CFU-GM assay (normal human bone marrow): synergized with human GM-CSF, human IL-3, and human CSF-1
Colony #/100,000 cells (±SEM) (normal human bone marrow; average of triplicate cultures, SCF = COS-1 supernatant 4 days after transfection): 0
cpm ([2]; COS-1 supernatant, 3 μl CM assayed): 9,638 cpm
cpm ([2]; COS-1 supernatant, 6 μl CM assayed): 11,482 cpm
cpm ([2]; COS-1 supernatant, 12 μl CM assayed): 11,322 cpm
cpm ([2]; COS-1 supernatant, 25 μl CM assayed): 11,648 cpm
cpm ([2]; stable CHO cell supernatant, volume assayed 1.5): 7,160 cpm
cpm ([2]; stable CHO cell supernatant, volume assayed 3): 14,714 cpm
cpm ([2]; stable CHO cell supernatant, volume assayed 6): 30,657 cpm
cpm ([2]; stable CHO cell supernatant, volume assayed 12): 34,973 cpm
cpm ([2]; stable CHO cell supernatant, volume assayed 25): 33,926 cpm
Colony #/3000 Cells ± SD (KG-1): 6 ± 1

B2: rcG-CSF: recombinant canine G-CSF (protein, UniProt P35834 1-175, looked up)
Granulocyte …: MAPLGPTGPLPQSFLLKCLEQMRKVQADGTALQETLCATHQLCHPEELVLLGHALGIPQPPLSSCSSQALQLMGCLRQLHSGLFLYQGLLQALAGISPELAPTLDTLQLDTTDFAINIWQQMEDLGMAPAVPPTQGTMPAFTSAFQRRAGGVLVASNLQSFLELAYRALRHFAKP
Recovery of ANC > 1000/mm^3 (irradiated dogs; 10 days treatment following transplant): Day 8
Recovery of ANC > 500 mm^3 (irradiated dogs; 10 days treatment following transplant (rcSCF 200, rcG-CSF 10 μg/kg/day SC)): Day 7
